Assays:
Human EphA2 (human) [1] = target: Human EphA2 (human) (UniProt P29317); experiment: IHC/IF on frozen human tumor tissue: ANC
Human EphA2 (human) [2] = target: Human EphA2 (human) (UniProt P29317); experiment: IHC/IF on frozen human tumor tissue: CRC
Human EphA2 (human) [3] = target: Human EphA2 (human) (UniProt P29317); experiment: IHC/IF on frozen human tumor tissue: ESO
Human EphA2 (human) [4] = target: Human EphA2 (human) (UniProt P29317); experiment: IHC/IF on frozen human tumor tissue: GAC
Human EphA2 (human) [5] = target: Human EphA2 (human) (UniProt P29317); experiment: IHC/IF on frozen human tumor tissue: HNC
Human EphA2 (human) [6] = target: Human EphA2 (human) (UniProt P29317); experiment: IHC/IF on frozen human tumor tissue: OVA
Human EphA2 (human) [7] = target: Human EphA2 (human) (UniProt P29317); experiment: IHC/IF on frozen human tumor tissue: STS
Human EphA2 (human) [8] = target: Human EphA2 (human) (UniProt P29317); experiment: IHC/IF on frozen human tumor tissue: URO
Human EphA2 (human) [9] = target: Human EphA2 (human) (UniProt P29317); experiment: IHC/IF on frozen human tumor tissue: MELA
Human EphA2 (human) [10] = target: Human EphA2 (human) (UniProt P29317); experiment: IHC/IF on frozen human tumor tissue: PANC
Human EphA2 (human) [11] = target: Human EphA2 (human) (UniProt P29317); experiment: IHC/IF on frozen human tumor tissue: PROC
Human EphA2 (human) [12] = target: Human EphA2 (human) (UniProt P29317); experiment: IHC/IF on frozen human tumor tissue: TNBC
Human EphA2 (human) [13] = target: Human EphA2 (human) (UniProt P29317); experiment: IHC/IF on frozen human tumor tissue: ER+ BRC
Human EphA2 (human) [14] = target: Human EphA2 (human) (UniProt P29317); experiment: IHC/IF on frozen human tumor tissue: NSCLC-SQ
Human EphA2 (human) [15] = target: Human EphA2 (human) (UniProt P29317); experiment: IHC/IF on frozen human tumor tissue: Her2+ BRC
Human EphA2 (human) [16] = target: Human EphA2 (human) (UniProt P29317); experiment: IHC/IF on frozen human tumor tissue: NSCLC-Adeno
Human EphA2 (human) [17] = target: Human EphA2 (human) (UniProt P29317); experiment: IHC/IF on frozen human tumor tissue: RCC-papillary
Human EphA2 (human) [18] = target: Human EphA2 (human) (UniProt P29317); experiment: IHC/IF on frozen human tumor tissue: RCC-clear cell
Human EphA2 (human) [19] = target: Human EphA2 (human) (UniProt P29317); experiment: IHC/IF on frozen human tumor tissue: UCEC-papillary
Human EphA2 (human) [20] = target: Human EphA2 (human) (UniProt P29317); experiment: IHC/IF on frozen human tumor tissue: UCEC-clear cell
Human EphA2 (human) [21] = target: Human EphA2 (human) (UniProt P29317); experiment: IHC/IF on frozen human tumor tissue: UCEC-endometrioid

| IHC score (Human EphA2 (human) [1]) | IHC score (Human EphA2 (human) [2]) | IHC score (Human EphA2 (human) [3]) | IHC score (Human EphA2 (human) [4]) | IHC score (Human EphA2 (human) [5]) | IHC score (Human EphA2 (human) [6]) | IHC score (Human EphA2 (human) [7]) | IHC score (Human EphA2 (human) [8]) | IHC score (Human EphA2 (human) [9]) | IHC score (Human EphA2 (human) [10]) | IHC score (Human EphA2 (human) [11]) | IHC score (Human EphA2 (human) [12]) | IHC score (Human EphA2 (human) [13]) | IHC score (Human EphA2 (human) [14]) | IHC score (Human EphA2 (human) [15]) | IHC score (Human EphA2 (human) [16]) | IHC score (Human EphA2 (human) [17]) | IHC score (Human EphA2 (human) [18]) | IHC score (Human EphA2 (human) [19]) | IHC score (Human EphA2 (human) [20]) | Substance | also measured |
| --- | --- | --- | --- | --- | --- | --- | --- | --- | --- | --- | --- | --- | --- | --- | --- | --- | --- | --- | --- | --- | --- |
| 1 | 1 | 1 | 1 | 1 | 1 | 1 | 1 | 2 | 1 | 1 | 1 | 1 | 1 | 1 | 2 | 2 | 1 | 2 | 2 | LS-B1794-50 (AA 450-500) (antibody) | IHC score (Human EphA2 (human) [21]): 1 |
| 2 | 1 | 2 | 1 | 2 | 2 | 2 | 1 | 3 | 1 | 1 | 1 | 1 | 2 | 2 | 2 | 1 | 1 | 3 | 2 | LS-C36249-100 (extracellular) (antibody) | IHC score (Human EphA2 (human) [21]): 2 |
| 1 | 1 | 1 | 1 | 1 | 1 | 1 | 1 | 2 | 1 | 1 | 1 | 1 | 1 | 1 | 1 | 1 | 1 | 2 | 2 | LS-C100255-400 (AA 30-60) (antibody) | IHC score (Human EphA2 (human) [21]): 1 |
| 2 | 1 | 2 | 1 | 2 | 2 | 1 | 1 | 3 | 2 | 1 | 1 | 1 | 2 | 1 | 2 | 1 | 1 | 2 | 2 | MAB3035 (Gln25-Asn534) (antibody) | IHC score (Human EphA2 (human) [21]): 2 |

Reference: patent publication US20250276077A1, “EPHA2 ANTIBODIES” (Immunome, Inc., priority 2022, published 2025)
